Assay: yeast display, Sf9 membrane polyspecificity reagent, FACS + sequencing; frameworks hold sequencing errors
How it was run: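 Sorting gates, low and high (top ~1%), were placed on anti-HA fluorescence to track expression and on streptavidin fluorescence to track reagent binding. A clone's polyreactivity label is taken from the gate it came out of. The reagent was 10% biotinylated, detergent-solubilized Sf9 membrane, applied for 1 hour at 4 °C to galactose-induced yeast display cells.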

| Sequence | polyreactivity (PSR sort gate) |
| --- | --- |
| QVQLVESGGGLVQAGGSLRLSCAASGSIFFEYAMGWSRQAPGKERELVASINRGGGSTYYSDSVKGRFTISRDNAKNTVYLQMNSLKPEDTAVSYCAAQWKYRQSYLDYYSGQGTQVTVSS | low polyreactivity |
| QVQLVESGGGLVQAGGSLRLSCAASGSIFFEYAMGWYRQAPGKERELVASINRGGGSTYYADSVKGRFTISRDNAKNTVYLQMNSLKPEDTAVYYCAAQWKYRQSYLDYYWGQGTQVTVSS | low polyreactivity |
| QVQLVESGGGLVQAGGSLRLSCAASGSIFFFNAMGWYRQAPGKEREMVAAISESGTSTYYADSVKGRFTISRDNAKNTVYLQMNSLKPEDTAVYYCNVVFRYAYGVYYTPEFYYWGQGTQVTVSS | low polyreactivity |
| QVQLVESGGGLVQAGGSLRLSCAASGSIFFGNAMGWYRQAPGKERELVAASTTSGGSTYYADSVKGRFTISRDNAKNTVYLQMNSLKPEDTAVYYCNAEYRTGVDGPRSRGGDYWGQGTQVTVSS | low polyreactivity |
| QVQLVESGGGLVQAGGSLRLSCAASGSIFFGNDKGWYRQAPGKERELVAGISNGGRTNYADSVKGRFTISRDNAKNTVYLQMNSLKPEDTAVYYCAKHPVYIYWSRVLVGYYSWGQGTQVTVSS | low polyreactivity |
| QVQLVESGGGLVQAGGSLRLSCAASGSIFFGNVMGWYRQAPGKERELVAVISWSGGTTYYADSVKGRFTISRDNAKNTVYLQMNSLKAEYTAVYYCNARYLRRGDYWGQGTQVTVSS | low polyreactivity |
| QVQLVESGGGLVQAGGSLRLSCAASGSIFFHYAMGWYIQAPGKERELVAAITWDGGSTYYADSVKGRFTISRDNAKNTVYLQMNSLKPEDTAVYYCNADQDLSTDEDYWGQGTQVTVSS | low polyreactivity |
| QVQLVESGGGLVQAGGSLRLSCAASGSIFFIYDMGWYRQAPGKERELVADITSGGGSTFYADSVKGRFTISRDNAKNTVYLQMNSLKPEDTAVYYCATDDHDQPGGQLYITEVNYWGQGTQVTVSS | low polyreactivity |
| QVQLVESGGGLVQAGGSLRLSCAASGSIFFLYAMGWYRQAPGKERELVAAISRSGVSTYYADSVKGRFTISRDNAKNTVYLQMNSLKPEDTAVYYCNRRVPVTRSRYYYWGQGTQVTVSS | high polyreactivity |
| QVQLVESGGGLVQAGGSLRLSCAASGSIFFPYAMGWYRQAPGKERELVAAIDTSSGSTYSADSVKGRFTISRDNAKNTVYLQMNSLKPEDTAVYYCAREALQYPGLKYNYWGQGTQVTVSS | low polyreactivity |
| QVQLVESGGGLVQAGGSLRLSCAASGSIFFQYAMGWYRQAPGKERELVAAISTGGSTNYADSVKGRFTISRDNAKNTVYLQMNSLKPEETAVYYCAAYSRYKGYQYDYWGQGTQVTVSS | low polyreactivity |
| QVQLVESGGGLVQAGGSLRLSCAASGSIFFRNAMGWYRQAPGKERELVAAITSGGSTYYADSVKGRFTISRDNAKNTVYLQMNSLKPEDTAVYYCNREFWRSSSYRYYYWGQGTQVTVSS | high polyreactivity |
| QVQLVESGGGLVQAGGSLRLSCAASGSIFFRNAMGWYRQAPGKERELVATIDWSGGYTDYADTVKGRFTISRDNAKNTVYLQMNSLKPEETAVYYCATGRYDRYYNFWYYYWGQGPQVTVSS | high polyreactivity |
| QVQLVESGGGLVQAGGSLRLSCAASGSIFFRYAMGWYRQAPGKERELVAAISDSGGTTYYADSVKGRFTISRDNAKNTVYLQMNSLKPEDTAVYYCAARFIYYSNRYYRYREFNYWGQGTQVTVSS | high polyreactivity |
| QVQLVESGGGLVQAGGSLRLSCAASGSIFFVYGMGWYRQAPGKERELVAAISGGITNYADSVKGRFTISRDNAKNTVNLQMNSLKPEDTAVYYCAAYTPSYGGRDYWGQATQVTVSS | low polyreactivity |
| QVQLVESGGGLVQAGGSLRLSCAASGSIFFWNDMGWYRQAPGTERELVAAISWSGGSTSYADSVKGRFTISRDNAKNTVYLQMNSLKPEDTAVYYCAADYYYRTLYGYIGMDYWGQGTQVTVSS | low polyreactivity |
| QVQLVESGGGLVQAGGSLRLSCAASGSIFFYYAMGWYRQAPGKERELVAAIDFNGGNTYYADSVKGRFTISRDNAKNTVYLQMNSLKPEDTAVYYCAAEWEGTYTTVPDEFNYWGQGTQVTVSS | high polyreactivity |
| QVQLVESGGGLVQAGGSLRLSCAASGSIFFYYAMGWYRQAPGKERELVAAINWSGVNTYYADSVKGRFTISRDNAKNTVYLQMNSLKPEDTAVYYFNAVVSLTSYGYLGYLFDYWGQGTLVTVSS | low polyreactivity |
| QVQLVESGGGLVQAGGSLRLSCAASGSIFFYYAMGWYRQAPGKERELVAAISGGGRTNYADSVKGRFTISRDNAKNTVYLQMNSLKPEDTAVYYCAADPVYWYSPMDYWGQGTQVTVSS | low polyreactivity |
| QVQLVESGGGLVQAGGSLRLSCAASGSIFFYYAMGWYRQAPGKERELVAAITSSDGDTYYADSVKGRFTISRDNAKNTVYLQMYSLKPEDTAVYYCAAESGPSPPITTSSNEYWGQGTLVTVSS | low polyreactivity |
| QVQLVESGGGLVQAGGSLRLSCAASGSIFFYYTMGWYRQAPGKEREFVAAISGSGGSTYYADSVKGRFTISRDNAKNTVYLQMNSLKPEDTAVYYCAAGLRLDLGAMYYWGQVTQVTVSS | low polyreactivity |
| QVQLVESGGGLVQAGGSLRLSCAASGSIFGAYAMGWYRQAPGKERELVAAISGSGTSTYYADSVKGRFTISRDNAKNTVYLQMNSLKPEDTAVYYCATAKLTWRSQGLDYWGQGTQVTVSS | low polyreactivity |

| Sequence | polyreactivity (PSR sort gate) |
| --- | --- |
| QVQLVESGGGLVQAGGSLRLSCAASGSIFGAYAMGWYRQAPGKERELVAVIRWGGGSTYADSVKGRFTISRDNAKNTVYLQMNSLKPEDTAVYYCNRDKSWADLYSHAYDYWGQGTQVTVSS | low polyreactivity |
| QVQLVESGGGLVQAGGSLRLSCAASGSIFGDNAMGWYIQAPGKERELVAAITSSGVRTYYADSVKGRFTISRDNAKNTVYLQMNSLKPEDTAVYYCNADRFRRIRWYAITRSDYWGQGTQVTVSS | high polyreactivity |
| QVQLVESGGGLVQAGGSLRLSCAASGSIFGDYVMGWYRQAPGKERELVAAITSATSTYYADSVKGRFTISRDNAKNTVYLQINSLKPEDTAVYYCNADATYPLWPNIWYDYDYWGQGTQVTVSS | low polyreactivity |
| QVQLVESGGGLVQAGGSLRLSCAASGSIFGEYAMGWYRQAPGKERELVAAITFSTGSTYYADSVKGRFTISRDNAKNTVYLQMNSLKPEDTAVYYCAAESYTYYWYDYEYWGQGTQVTVSS | high polyreactivity |
| QVQLVESGGGLVQAGGSLRLSCAASGSIFGFNAMGWYRQAPGIERELVAAINNGGSTNYADSVKGRFTISRENANNTVYLQMNSLKPEDTADYYCAARLNYIRRGYWGQGTQVTVSS | high polyreactivity |
| QVQLVESGGGLVQAGGSLRLSCAASGSIFGFYAMGWYRQAPGKERELVASISSSGDSTYYADSVKGRFTISRDNAKNTVYLQMNSLNPEDTAVYYCAAVVYDIYGYEFDYWGQGTQVTVSS | low polyreactivity |
| QVQLVESGGGLVQAGGSLRLSCAASGSIFGGNAMGWYRQAPGKERELVAAITSTVSTNYADSVKGRFTISRDNAKNTVYLQMNSLKPEVTAVYYCATDSSNVEGDYWGQGTQVTVSS | low polyreactivity |
| QVQLVESGGGLVQAGGSLRLSCAASGSIFGGYAMGWYRQAPGKERELVAAISWSSSSTYYADSVKGRFTISRDNAKNTVYLQMNSLKPEDTAVYYCNAKPFYDYTEYDYWGQGTQVTVSS | low polyreactivity |
| QVQLVESGGGLVQAGGSLRLSCAASGSIFGGYAMGWYRQAPGKERELVAAITSSGGRTYYADSVKGRFTISRDNAKNTVYLQMNSLKPEDTAVYYCAASPNYYYYYPMYYWGQGTQVTVSS | high polyreactivity |
| QVQLVESGGGLVQAGGSLRLSCAASGSIFGGYAMGWYRQAPGKERELVATISYSGDSTYYADSVKGRFTISRDHAKNTVYLQMNSLKPEDTAVDYCATESNGSPYKGDYWGQGTQVTVSS | low polyreactivity |
| QVQLVESGGGLVQAGGSLRLSCAASGSIFGGYTMGWYRQAPGKERELVAAISRRGGNTYYADSVKGRFTISRDNAKNTVYLQMNSLKPEDTAVYYCNARPTTYNYDYWGQGTQVTVSS | high polyreactivity |
| QVQLVESGGGLVQAGGSLRLSCAASGSIFGGYTMGWYRQAPGKERELVAAISRRGGNTYYADSVKGRFTISRDYAKNTVYLQMNSLKPDDTAVYFCAKRYASTSGYWGQGTQVTVSS | high polyreactivity |
| QVQLVESGGGLVQAGGSLRLSCAASGSIFGHNTMGWYRQAPVKERELVAAISSGSRTNSADTVKGRFTISRDNAKNTVYLQMKSLKPEDTAVDYCATKVYSSRYRGYGYWGQGPQVTVSS | high polyreactivity |
| QVQLVESGGGLVQAGGSLRLSCAASGSIFGINAMGWYRQAPGKERELVAAITNSGANTYYADSVKGRFTISRDNAKNTVYLQMNSLKPEDTAVYYCATDFIGVIYDYWGQGTQVTVSS | low polyreactivity |
| QVQLVESGGGLVQAGGSLRLSCAASGSIFGINAMGWYRQAPWKERELVAAITSDGSTYYADSVKGRFTISRDNAKNTVYLQMNSLNPEDTAVYYCAAYSWYYTSRYDYWGQGTQVTVSS | low polyreactivity |
| QVQLVESGGGLVQAGGSLRLSCAASGSIFGINGMGWYRQAPGKERELVAAISDSGGSTYYADSVKGRFTISRDNAKNTVYLQMNSLKPEDTAVYYCAAETYWYFAQFYDLYSYDYWGQGTQVTVSS | low polyreactivity |
| QVQLVESGGGLVQAGGSLRLSCAASGSIFGIYAMGWYRQAPGKERELVAAISSRAGSTNYADSVKGRFTISRDNAKNTVYLKMNSLKPEDTAVYDCNAKFSPPRRWPLRDYWGQGTQVTVSS | high polyreactivity |
| QVQLVESGGGLVQAGGSLRLSCAASGSIFGKYAMGWYRQAPGKERELVAAISERTGRTYYADSVKGRFTISRDNAKNTVYLQMNSLKPEDTAVYYCNVGPLYSGWSTYGYDYWGQGTQVTVSS | high polyreactivity |
| QVQLVESGGGLVQAGGSLRLSCAASGSIFGKYAMGWYRQAPGKERELVAAISGRGGGTYYADSVKGRFTISRDNAKNTVYLQMNSLKPEDTAVYYCNAYYSRLRYDYWGQGTQVTVSS | high polyreactivity |
| QVQLVESGGGLVQAGGSLRLSCAASGSIFGLNAMGWYRQAPGKERELVARISTGSSTNYADSVKGRFTISRDNAKNTVYLQMNSLKPEDTAVYYCAADVDGGRHYGYWGQGTQVTVSS | low polyreactivity |
| QVQLVESGGGLVQAGGSLRLSCAASGSIFGLNDMGWYRQAPGKERELVAGISSGGSTYYADSVKGRFTISRDNAKNTVYLQMNSLKPEDTAVYYCATEGRWPNASYGDYDYWGQGTQVTVSS | low polyreactivity |

Source: the nanobody polyreactivity screen of Harvey et al. (2022)
